Data taken from IntAct's records for PubMed 17299042.

B1: Protein BMH2 (Saccharomyces cerevisiae), P34730 (parent)
chain: MSQTREDSVYLAKLAEQAERYEEMVENMKAVASSGQELSVEERNLLSVAYKNVIGARRASWRIVSSIEQKEESKEKSEHQVELIRSYRSKIETELTKISDDILSVLDSHLIPSATTGESKVFYYKMKGDYHRYLAEFSSGDAREKATNSSLEAYKTASEIATTELPPTHPIRLGLALNFSVFYYEIQNSPDKACHLAKQAFDDAIAELDTLSEESYKDSTLIMQLLRDNLTLWTSDISESGQEDQQQQQQQQQQQQQQQQQAPAEQTQGEPTK

Variants of: B1
Conditions: with rad53_yeast RAD53, P22216
rad53_yeast RAD53, P22216, sequence (P22216 whole entry): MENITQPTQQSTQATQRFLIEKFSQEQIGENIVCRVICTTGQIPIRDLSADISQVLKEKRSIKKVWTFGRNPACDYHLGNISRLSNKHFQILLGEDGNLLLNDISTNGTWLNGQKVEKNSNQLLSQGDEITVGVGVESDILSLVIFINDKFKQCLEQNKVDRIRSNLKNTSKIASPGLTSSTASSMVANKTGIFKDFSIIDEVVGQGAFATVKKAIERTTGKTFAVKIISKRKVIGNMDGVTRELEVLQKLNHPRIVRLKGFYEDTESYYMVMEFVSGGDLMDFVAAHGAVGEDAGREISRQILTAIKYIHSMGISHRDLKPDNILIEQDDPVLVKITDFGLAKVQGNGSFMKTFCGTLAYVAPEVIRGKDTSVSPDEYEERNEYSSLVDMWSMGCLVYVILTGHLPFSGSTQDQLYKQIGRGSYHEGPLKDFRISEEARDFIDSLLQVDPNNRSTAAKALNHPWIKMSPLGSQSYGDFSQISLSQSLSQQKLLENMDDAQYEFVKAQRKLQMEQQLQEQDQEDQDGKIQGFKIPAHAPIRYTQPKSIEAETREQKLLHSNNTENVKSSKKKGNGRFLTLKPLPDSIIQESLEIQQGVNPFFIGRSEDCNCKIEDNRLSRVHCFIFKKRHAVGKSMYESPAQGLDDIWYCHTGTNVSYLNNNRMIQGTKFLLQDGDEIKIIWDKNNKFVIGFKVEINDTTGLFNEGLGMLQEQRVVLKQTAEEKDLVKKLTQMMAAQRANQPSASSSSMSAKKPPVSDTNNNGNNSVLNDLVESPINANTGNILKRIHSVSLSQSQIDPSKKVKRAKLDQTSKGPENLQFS

| Variant | effect of a mutation on the interaction |
| --- | --- |
| K51R | decreasing interaction strength |
| L225Q | disrupting interaction strength |

Continued, values first:

| effect of a mutation on the interaction | Variant |
| --- | --- |
| decreasing interaction strength | K51L |
| disrupting interaction strength | E185D |
